Data from article PMC2935870.

Target: pGBKT7-53
Test: two-hybrid

In the case of pGADT7-T (domain or fragment), the α-galactosidase activity is reported as 22.
